The values below come from US20200384107A1 (PRIMATOPE THERAPEUTICS, published 2020).

The target in one test is T1, human CD40-MBP fusion (human, UniProt P25942 21-193; P0AEX9 27-392 = MBP, limits assumed).
T1 construct: also called CD40-MBP fusions of human
Description: BIACore 3000, h2C10 amine-coupled to a CM5 chip, human CD40-MBP injected at 0-160 nM. Here is the method: (§1) Humanized 2C10 antibodies (h2C10) were immobilized to the surface of CM5 chip by amine coupling. Different concentrations of CD40-MBP fusions of human, rhesus, and baboon were analyzed for affinity on a BIACore 3000. The binding affinity was calculated with BIAevaluation software version 4.1.1.
On the technique in general: Surface plasmon resonance follows binding to a sensor surface in real time, without labels.

Test [1] concerns the target T2, human CD40, recombinant / purified (human, UniProt P25942 21-193, limits assumed).
T2 construct: also called hCD40; purified CD40
Kind of test: kinetics on human CD40, compared with murine 2C10.

The target in test [2] is T2, human CD40, recombinant / purified. Description: kinetics on human CD40; Biacore by paragraph 276, Forte Bio with biotinylated CD40 on streptavidin biosensors by paragraph 270.
The target of another test is T3, rhesus CD40-MBP fusion (rhesus macaque (M. mulatta), UniProt P25942 21-120 (human entry)).
T3 construct: also called CD40-MBP fusions of rhesus
T3 chain: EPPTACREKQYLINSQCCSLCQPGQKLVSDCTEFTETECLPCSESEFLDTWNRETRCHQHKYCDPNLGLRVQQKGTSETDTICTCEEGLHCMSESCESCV
Kind of test: BIACore 3000, h2C10 amine-coupled to a CM5 chip, rhesus CD40-MBP injected at 0-160 nM. Here is the method:
as §1

Test [3] concerns the target T2, human CD40, recombinant / purified. Kind of test: CD40 binding affinity, method not given; reference murine 2C10.
The target is the same in test [4]. Kind of test: kinetics on human CD40, compared with parent 2C10.
A further test has as its target T4, baboon CD40-MBP fusion (baboon, UniProt P0AEX9 27-392 = MBP).
T4 construct: also called CD40-MBP fusions of baboon; not shown: baboon CD40 part of the MBP fusion
Kind of test: BIACore 3000, h2C10 amine-coupled to a CM5 chip, baboon CD40-MBP injected at 0-160 nM. Here is the method:
as §1

The target in test [5] is T5, CD40 (as in Table 2, species and form not stated).
T5 construct: also called CD40 Receptor
Description: binding kinetics, method not stated.

In test [6] the target is T6, human CD40 on human blood B cells (CD20+ cells of PBMCs) (human, UniProt P25942 21-277).
T6 construct: whole, on cells; also called human CD20+ B cells; human B cells
Kind of test: flow cytometry blocking assay: human B cells incubated with 2C10, then with histidine-tagged soluble CD154, read by histidine staining. Here is the method:
To assess the ability of 2C10 to bind to both rhesus and human CD40, recombinantly expressed human or rhesus CD40 were adsorbed to ELISA plates and reacted with varying concentrations of 2C10. Binding of 2C10 to CD40 was detected using goat anti-mouse IgG-HRP in an ELISA. […] To confirm the ability of 2C10 to block binding of its cognate ligand, CD154, rhesus and human B cells were incubated with escalating concentrations of 2C10 or an isotype control and then incubated with histidine-tagged soluble CD154 (R&D Systems, Minneapolis, Minn.) and analyzed for histidine expression.
A general note: Flow cytometry measures light scatter and fluorescence of single cells or particles in a stream.

B1: humanized 2C10, clone 2.189.2 (2C10_h3 + 2C10_l2) (antibody, V domains shown)
VH: QVQLVQSGAEVKKPGASVKVSCKASGYTFTNYWMHWVRQAPGQRLEWIGYINPSNDYTKYNQKFKDRATLTADKSANTAYMELSSLRSEDTAVYYCARQGFPYWGQGTLVTVSS
VL: EIVLTQSPATLSLSPGERATLSCSASSSVSYMHWYQQKPGQAPRRWIYDTSKLASGVPARFSGSGSGTDYTLTISSLEPEDFAVYYCHQLSSDPFTFGGGTKVEIK
notes: also called h2C10; mAb 2.189.2
By Kd is commonly meant the constant that tells how readily two partners part at equilibrium. For orientation: koff means the first-order rate constant of dissociation. One may read the kon as a measure of how fast the partners come together. On to B1, for which the Kd amounted to 4.72 nM in the test with human CD40-MBP fusion, 0.39 nM in test [2], 2.61 nM with rhesus CD40-MBP fusion and 2.57 nM with baboon CD40-MBP fusion. For the same molecule, the “fold of affinity against murine 2C10” value in test [1] is at most 2 fold. For the same molecule, the koff in test [2] was found to be 0.000128 s⁻¹. Also, the kon in test [2] came to 179000 M⁻¹ s⁻¹. In addition, the “fold of the affinity of murine 2C10” value in test [3] was at most 2 fold. Besides, the “fold reduction in affinity relative to the parent 2C10 mAb” value in test [4] was around 2 fold.

B2: 2C10 (murine anti-CD40 monoclonal antibody) (antibody, V domains shown)
VH: QVQLQQSGAELAKPGASVKMSCKASGYTFTNYWMHWVKQRPGQGLEWIGYINPSNDYTKYNQKFKDKATLTADKSSNTAYMQLGSLTSEDSAVYYCARQGFPYWGQGTLVTVSA
VL: QIVLTQSPAIMSASPGEKVTMTCSASSSVSYMHWYHQRSGTSPKRWIYDTSKLASGVPARFSGSGSGTSYSLTISSMEAEDAATYYCHQLSSDPFTFGSGTKLEIK
notes: In some assays it was conjugated to a fluorochrome (APC); also called murine 2C10; parent 2C10 mAb
Consider B2, for which, in test [5], the dissociation constant Kd was 0.273 nM, the koff amounted to 1.86e-06 s⁻¹ and the kon was 2730 M⁻¹ s⁻¹. Besides, in test [2], the dissociation constant Kd is 0.222 nM, the off-rate constant (koff) stood at 6.01e-05 s⁻¹ and the on-rate (kon) came out at 148000 M⁻¹ s⁻¹. The “IC50 (read off the curve)” value in test [6] is around 1 µg/mL.
